Biological target: MUC1 cytoplasmic tail construct (MUC1 with the tandem repeat domain deleted) (human)
Assay: co-IP

c-Jun (from UniProt P05412 1-331) (natural protein)
fold of co-precipitated protein against the input control: 5.6 fold

p53 (from UniProt P04637 1-393) (natural protein)
fold of co-precipitated protein against the input control: 6.9 fold

Source: article PMC7048170
